Results as given in the supplement of paper PMC9112550, “Optimization of the antimicrobial peptide Bac7 by deep mutational scanning” (BMC Biology, 2022).

Each sequence was assayed on Escherichia coli TOP10 (assay: shrunken log2 fold change of peptide-encoding DNA abundance (4.5 h post-induction vs induction); higher = less antimicrobial activity (less host growth inhibition)). Details: time post-induction: 4.5 h; library: site-saturation at positions 5, 18, 19, 20.
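Note: peptides expressed intracellularly from a pBAD plasmid library in pooled LB shake-flask culture, induced with 0.3% L-arabinose, DNA abundance read by NGS, three biological replicates, DESeq2 with apeglm shrinkage.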

| Sequence | shrunken log2 fold change |
| --- | --- |
| RRIRARPPRLPRPRPRPVLWPRP | 2.26 |
| RRIRARPPRLPRPRPRPVMFPRP | 0.283 |
| RRIRARPPRLPRPRPRPVPDPRP | 0.493 |
| RRIRARPPRLPRPRPRPVPSPRP | 0.181 |
| RRIRARPPRLPRPRPRPVPWPRP | 0.452 |
| RRIRARPPRLPRPRPRPVSTPRP | -0.0272 |
| RRIRARPPRLPRPRPRPVTCPRP | 0.0514 |
| RRIRARPPRLPRPRPRPVTNPRP | 0.275 |
| RRIRARPPRLPRPRPRPVVCPRP | 0.224 |
| RRIRARPPRLPRPRPRPVWNPRP | 0.0865 |
| RRIRARPPRLPRPRPRPVYEPRP | -0.426 |
| RRIRARPPRLPRPRPRPVYNPRP | -0.482 |
| RRIRARPPRLPRPRPRPVYRPRP | 0.144 |
| RRIRARPPRLPRPRPRPWASPRP | -0.145 |
| RRIRARPPRLPRPRPRPWATPRP | 0.494 |
| RRIRARPPRLPRPRPRPWCRPRP | 0.0486 |
| RRIRARPPRLPRPRPRPWEGPRP | 0.209 |
| RRIRARPPRLPRPRPRPWESPRP | 0.192 |
| RRIRARPPRLPRPRPRPWFYPRP | 0.0676 |
| RRIRARPPRLPRPRPRPWHHPRP | -0.168 |
| RRIRARPPRLPRPRPRPWHMPRP | -0.361 |
| RRIRARPPRLPRPRPRPWIDPRP | -0.0113 |
| RRIRARPPRLPRPRPRPWIKPRP | -0.0328 |
| RRIRARPPRLPRPRPRPWIMPRP | -0.332 |
| RRIRARPPRLPRPRPRPWKNPRP | -0.145 |

| Sequence | shrunken log2 fold change |
| --- | --- |
| RRIRARPPRLPRPRPRPWKVPRP | -0.279 |
| RRIRARPPRLPRPRPRPWLFPRP | 0.547 |
| RRIRARPPRLPRPRPRPWMSPRP | 0.0814 |
| RRIRARPPRLPRPRPRPWMWPRP | 0.213 |
| RRIRARPPRLPRPRPRPWPRPRP | 0.992 |
| RRIRARPPRLPRPRPRPWQCPRP | -0.197 |
| RRIRARPPRLPRPRPRPWQGPRP | 0.0405 |
| RRIRARPPRLPRPRPRPWRDPRP | 0.225 |
| RRIRARPPRLPRPRPRPWRGPRP | 0.39 |
| RRIRARPPRLPRPRPRPWRKPRP | 0.0387 |
| RRIRARPPRLPRPRPRPWRLPRP | 0.466 |
| RRIRARPPRLPRPRPRPWTRPRP | 0.27 |
| RRIRARPPRLPRPRPRPWWAPRP | 0.289 |
| RRIRARPPRLPRPRPRPWWLPRP | -8.93e-05 |
| RRIRARPPRLPRPRPRPWWSPRP | 0.271 |
| RRIRARPPRLPRPRPRPWYTPRP | -0.514 |
| RRIRARPPRLPRPRPRPYADPRP | 0.103 |
| RRIRARPPRLPRPRPRPYAFPRP | -0.125 |
| RRIRARPPRLPRPRPRPYAVPRP | -0.0829 |
| RRIRARPPRLPRPRPRPYCAPRP | -0.277 |
| RRIRARPPRLPRPRPRPYELPRP | -0.101 |
| RRIRARPPRLPRPRPRPYFAPRP | -0.201 |
| RRIRARPPRLPRPRPRPYFPPRP | -0.418 |
| RRIRARPPRLPRPRPRPYGTPRP | -0.131 |
| RRIRARPPRLPRPRPRPYIGPRP | 0.00388 |

| Sequence | shrunken log2 fold change |
| --- | --- |
| RRIRARPPRLPRPRPRPYINPRP | -0.413 |
| RRIRARPPRLPRPRPRPYKSPRP | -0.441 |
| RRIRARPPRLPRPRPRPYLSPRP | -0.451 |
| RRIRARPPRLPRPRPRPYMSPRP | 0.00296 |
| RRIRARPPRLPRPRPRPYMVPRP | -0.583 |
| RRIRARPPRLPRPRPRPYNDPRP | -1.28 |
| RRIRARPPRLPRPRPRPYNRPRP | -0.186 |
| RRIRARPPRLPRPRPRPYPSPRP | -0.0433 |
| RRIRARPPRLPRPRPRPYQDPRP | -0.00221 |
| RRIRARPPRLPRPRPRPYRWPRP | 0.0451 |
| RRIRARPPRLPRPRPRPYSDPRP | -0.262 |
| RRIRARPPRLPRPRPRPYSVPRP | -0.248 |
| RRIRARPPRLPRPRPRPYTCPRP | -0.0591 |
| RRIRARPPRLPRPRPRPYTFPRP | -0.444 |
| RRIRARPPRLPRPRPRPYTPPRP | -0.373 |
| RRIRARPPRLPRPRPRPYVFPRP | -0.245 |
| RRIRARPPRLPRPRPRPYVNPRP | -0.235 |
| RRIRARPPRLPRPRPRPYVSPRP | -0.0383 |
| RRIRARPPRLPRPRPRPYWSPRP | -0.186 |
| RRIRARPPRLPRPRPRPYYQPRP | -0.374 |
| RRIRARPPRLPRPRPRPYYVPRP | -0.169 |
| RRIRCRPPRLPRPRPRPAAPPRP | 0.668 |
| RRIRCRPPRLPRPRPRPADDPRP | 0.116 |
| RRIRCRPPRLPRPRPRPAEQPRP | 0.252 |
| RRIRCRPPRLPRPRPRPAEVPRP | -0.106 |
